Test results reported in publication PMC3376392 (Nature, 2012).

Key:
[1] = target: T1, NPR3 (Arabidopsis thaliana, UniProt Q8L746); assay: [3H]-SA binding
T1 sequence (Q8L746 1-586): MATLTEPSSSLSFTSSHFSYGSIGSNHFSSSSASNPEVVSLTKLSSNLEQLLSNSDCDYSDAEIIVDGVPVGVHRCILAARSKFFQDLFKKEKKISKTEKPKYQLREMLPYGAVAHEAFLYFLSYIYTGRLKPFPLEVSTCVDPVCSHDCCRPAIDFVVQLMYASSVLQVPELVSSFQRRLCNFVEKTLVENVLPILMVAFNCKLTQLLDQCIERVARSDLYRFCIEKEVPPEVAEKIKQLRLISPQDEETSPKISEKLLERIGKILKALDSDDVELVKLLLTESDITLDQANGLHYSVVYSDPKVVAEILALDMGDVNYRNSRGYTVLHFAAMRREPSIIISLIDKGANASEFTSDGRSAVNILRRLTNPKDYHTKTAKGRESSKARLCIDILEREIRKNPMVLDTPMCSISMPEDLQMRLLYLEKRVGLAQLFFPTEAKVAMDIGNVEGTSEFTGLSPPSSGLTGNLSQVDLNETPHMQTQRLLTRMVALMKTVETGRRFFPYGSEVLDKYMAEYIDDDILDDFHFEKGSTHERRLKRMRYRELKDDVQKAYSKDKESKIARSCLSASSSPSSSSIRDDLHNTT

[2] = target: T2, His-MBP-NPR1 (Arabidopsis thaliana, UniProt P93002 1-593); assay: pull-down
T2 sequence: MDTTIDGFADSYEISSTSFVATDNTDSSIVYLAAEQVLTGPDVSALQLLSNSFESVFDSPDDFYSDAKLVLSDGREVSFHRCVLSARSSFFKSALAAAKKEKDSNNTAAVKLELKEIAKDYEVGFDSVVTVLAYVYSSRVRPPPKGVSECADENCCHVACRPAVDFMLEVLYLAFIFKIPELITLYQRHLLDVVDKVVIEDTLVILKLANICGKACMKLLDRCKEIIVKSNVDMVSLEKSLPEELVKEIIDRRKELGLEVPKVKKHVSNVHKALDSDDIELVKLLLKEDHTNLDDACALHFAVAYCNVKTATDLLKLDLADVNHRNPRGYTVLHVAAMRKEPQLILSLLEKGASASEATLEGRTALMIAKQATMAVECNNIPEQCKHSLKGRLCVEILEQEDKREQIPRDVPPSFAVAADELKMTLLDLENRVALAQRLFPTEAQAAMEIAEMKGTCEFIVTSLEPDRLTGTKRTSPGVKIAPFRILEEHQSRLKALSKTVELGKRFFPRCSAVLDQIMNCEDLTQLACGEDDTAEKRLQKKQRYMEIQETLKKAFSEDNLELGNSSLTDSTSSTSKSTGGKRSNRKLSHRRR

[3] = target: the molecule itself; assay: SEC

`O=C(O)c1ccccc1O` [SA, Salicylic acid] showed a Kd [1] of 0.981 µM.

B1: GST-NPR4 (natural protein)
chain: MAATAIEPSSSISFTSSHLSNPSPVVTTYHSAANLEELSSNLEQLLTNPDCDYTDAEIIIEEEANPVSVHRCVLAARSKFFLDLFKKDKDSSEKKPKYQMKDLLPYGNVGREAFLHFLSYIYTGRLKPFPIEVSTCVDSVCAHDSCKPAIDFAVELMYASFVFQIPDLVSSFQRKLRNYVEKSLVENVLPILLVAFHCDLTQLLDQCIERVARSDLDRFCIEKELPLEVLEKIKQLRVKSVNIPEVEDKSIERTGKVLKALDSDDVELVKLLLTESDITLDQANGLHYAVAYSDPKVVTQVLDLDMADVNFRNSRGYTVLHIAAMRREPTIIIPLIQKGANASDFTFDGRSAVNICRRLTRPKDYHTKTSRKEPSKYRLCIDILEREIRRNPLVSGDTPTCSHSMPEDLQMRLLYLEKRVGLAQLFFPAEANVAMDVANVEGTSECTGLLTPPPSNDTTENLGKVDLNETPYVQTKRMLTRMKALMKTVETGRRYFPSCYEVLDKYMDQYMDEEIPDMSYPEKGTVKERRQKRMRYNELKNDVKKAYSKDKVARSCLSSSSPASSLREALENPT
B1: binds [2].

B2: purified recombinant NPR4 protein (natural protein)
chain: B1 chain
With B2 the “stoichiometry N” value [3] was roughly 4.
